For two substances, localisation_or_trafficking results are on record in PMC10547473.

Where two headings read alike, the source gives them in different places.

Take TFEB: 3xSA-TR (S134A, S138A, S142A): the localisation_or_trafficking entry is, setting by setting: (phosphorylation at S134) “decreases”; (phosphorylation at S138) “decreases”; (phosphorylation at S142) “decreases”.

Consider “TFEB: 5xSA-TR (S122A, S134A, S138A, S142A, S211A)”, for which the localisation_or_trafficking entry was “abolishes” (phosphorylation at S122); “abolishes” (phosphorylation at S134); “abolishes” (phosphorylation at S138); “abolishes” (phosphorylation at S142); “abolishes” (phosphorylation at S211).
